# Assay results taken from the supplement of paper PMC6755084.
# B1: F1*; the commonest letter at each place (parent)
# chain: GAGACCGCAACTGAAAAGTTGTTATCACTTGTCGTAAGACACTTTGGATGGGTTGAAGTTCTGCACGTAGAAGCAAAAGGC
# Variants of: B1
# Assay: fraction ligated after 30 min (ligated reads / total reads); higher = more ligase activity
# Conditions: with F1*sub RNA substrate (template-directed ligation), 42 °C
# How it was run: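 Oligo-pool templates of ligase ribozyme variants were PCR-amplified, T7-transcribed and gel-purified. Ligated and unligated bands were gel-separated, reverse transcribed with barcoded primers, and MiSeq-sequenced; core bases were filtered at quality ≥20. Fraction ligated per variant was ligated reads over total reads.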
row,Variant,fraction ligated
1,G34C T44C,0.803
2,G55C A56G A57T,0.0232
3,T32A G46A,0.81
4,C28A G50T,0.517
5,C28A G50A,0.154
6,C28G A36T,0.788
7,C26T G46C,0.81
8,A24G C26G,0.268
9,A37G A41C,0.787
10,C26A G50A,0.0155
11,T35A T45G,0.408
12,A24T A48T,0.00859
13,A37T G50C,0.388
14,C26G A39G,0.755
15,A37G,0.857
16,A27T C33G,0.838
17,A27T C33T,0.867
18,T45G T49A,0.0341
19,G38T T43A,0.808
20,A27C A36T,0.817
21,T43G A57T,0.799
22,C33A T35C,0.85
23,T30G T49G,0.808
24,A41C C42T,0.812

row,Variant,fraction ligated
1,A39C A57C,0.827
2,A24C T35A,0.782
3,T29G C40G,0.83
4,T29G C40T,0.809
5,C28G G47A,0.763
6,G34T C42G,0.841
7,T23C T35G,0.83
8,T44C G55A,0.815
9,A36G A57C,0.863
10,T25C A27G,0.796
11,C42A T43G,0.805
12,A36T A41T,0.819
13,A48T A56G,0.0654
14,T44A T45A,0.762
15,C28G T49G,0.763
16,A39T A56T,0.807
17,A37C G38A,0.836
18,C28G G55A,0.779
19,C28G G55T,0.763
20,T32G A36C,0.798
21,T23A T43G,0.81
22,T29G T30G,0.844
23,G55T A56T,0.378
24,G51T,0.792

row,Variant,fraction ligated
1,C26A A39C,0.627
2,C26A A39G,0.75
3,T35C T49C,0.731
4,T25A G34T,0.718
5,T25A G34C,0.521
6,A36G T49A,0.725
7,T23A G55T,0.783
8,A27C A39T,0.789
9,C33G A48T,0.0603
10,G46T G47C,0.0107
11,T35G A57C,0.805
12,G34C G46A,0.789
13,A27T G34C,0.795
14,C40A T49C,0.116
15,A36C A57G,0.816
16,G47T,0.37
17,C28G G50T,0.594
18,T29C A36T,0.834
19,T35G C40G,0.837
20,C42A T45A,0.766
21,A39G C42G,0.834
22,A27G A39C,0.8
23,T35G G46A,0.809
24,T23A G46A,0.749

row,Variant,fraction ligated
1,T43A A56G,0.782
2,T43A A56T,0.81
3,G31T G55A,0.813
4,A39T T49A,0.717
5,T29C A57C,0.797
6,A27C A41C,0.782
7,T25G C26A,0.261
8,T49A A56T,0.209
9,A24G A56T,0.0729
10,T30G G38C,0.805
11,T29A G38A,0.85
12,T29A G38C,0.851
13,C33T T44G,0.815
14,T44A,0.849
15,C40T C42G,0.857
16,G31T A36C,0.769
17,G31T A36G,0.798
18,A41T A56T,0.792
19,G34T T44G,0.842
20,G34T T44C,0.811
21,G34C T35C,0.835
22,T23G T43A,0.811
23,T30C T35C,0.824
24,T29A G47A,0.804

row,Variant,fraction ligated
1,G46T A56G,0.187
2,T29A C40A,0.851
3,T23C G55T,0.786
4,T30C G55C,0.504
5,C28G T29G,0.789
6,A37G G55C,0.833
7,T29G T44C,0.795
8,A37C A48T,0.775
9,A37T A41T,0.815
10,A37T A41G,0.799
11,G46T G55A,0.726
12,A24T G34T,0.76
13,C28G C42T,0.815
14,A24T A27C,0.737
15,T53A,0.834
16,T49A G50C,0.502
17,T49A G50A,0.281
18,T30C T45A,0.668
19,T43C G47T,0.446
20,C28A G38C,0.814
21,T29C A41G,0.766
22,G31A C40T,0.831
23,T49A G55A,0.62
24,T30A G38C,0.795

row,Variant,fraction ligated
1,T25A G31C,0.034
2,C26A G46C,0.744
3,A37T C42A,0.85
4,C28A T43G,0.812
5,T25G A37G,0.806
6,G47C A48T,0.257
7,A27T G46A,0.817
8,T29G T45C,0.677
9,T25A A36G,0.766
10,T25C G55C,0.424
11,A27T C42A,0.809
12,C42A,0.84
13,G31A T43G,0.807
14,A36G A56T,0.873
15,A24G C40T,0.84
16,T35A G55A,0.868
17,C26A T43G,0.547
18,C33T T43A,0.831
19,T29G G46T,0.805
20,T29A A41T,0.827
21,T35C G55A,0.841
22,T32A C40A,0.834
23,C28G G38A,0.792
24,T45G A48C,0.122

row,Variant,fraction ligated
1,C33A A56G,0.812
2,A27C T29G,0.797
3,A24T C26A,0.217
4,T30G T32G A39C A41C,0.845
5,T25C T35A,0.781
6,T23A T35A,0.827
7,A48G G50T,0.235
8,G34C A41G,0.758
9,G34A A39T,0.818
10,T25C T29G,0.783
11,T23G G34T,0.794
12,C33T A48T,0.452
13,T25G G31C,0.0618
14,T32G C33A,0.843
15,T25G G38C,0.165
16,A24G G47C,0.0125
17,T29A A57T,0.813
18,A27T G55C,0.749
19,C28A T44G,0.798
20,C28A T44A,0.834
21,T32C G46A,0.763
22,C40T A56C,0.773
23,C33T G47A,0.836
